In patent US20150374741A1, “METHODS FOR MAINTAINING POPULATION OF THERAPEUTIC CELLS IN TREATMENT SITE OF SUBJECT IN NEED OF CELL THERAPY” (DCB-USA LLC, priority 2013, published 2015):

Assay: In vivo HA degradation tracked by Alexa Fluor 700 fluorescent signal (IVIS) in ischemic hindlimb
Set-up: species or system mice
Settings: streptavidin alone injected into the hindlimb
Experimental: Biotinylated HA was suspended in deionized water overnight, and Alexa Fluor 700-conjugated streptavidin (Invitrogen, Grand Island, N.Y., USA) was prepared according to the manufacturer's instructions. The streptavidin and biotinylated HA were then mixed and gently agitated at 4° C. This mixture was filtered through Amicon centrifugal filter units (molecular-weight cut off 100 kDa; Millipore, Billerica, Mass., USA) to exclude extra streptavidin. The final products were freeze-dried and stored at 4° C.
hMSCs were cultured on 10-cm culture dishes and maintained at 37° C. under an atmosphere of 5% CO2 in air. A total of 4×10^6 hMSCs were mixed with 200 μl of αMEM culture medium or 1% HA and then injected into the ischemic muscles of mice. Immediately and at various intervals after the injection, the mice were imaged using a Xenogen IVIS® Spectrum device and the corresponding filter sets. The fluorescent intensity was determined by calculating the number of photons within the manually drawn ROI, and the intensity was adjusted to exclude tissue autofluorescence. […]

Alexa Fluor 700 labeled streptavidin: Alexa Fluor 700-conjugated streptavidin (Invitrogen), injected alone as label control
time until fluorescence disappeared: ≤ 12 h
